Results on three molecules are retold here after publication PMC3800053.

Test in all cases: EMSA
In general terms: A gel shift assay detects complexes by their altered migration in electrophoresis.

Data set [1] deals with Ikaros zinc fingers 1-3 (F1-F3) (UniProt Q03267 117-194).
Data set [2] concerns the target Ikaros zinc fingers 2-4 (F2-F4) (UniProt Q03267 144-223).
For data set [3], the target named is Ikaros zinc fingers 1-4 (F1-F4) (UniProt Q03267 117-223).
Chain of Ikaros zinc fingers 1-4 (F1-F4) (Q03267 117-223): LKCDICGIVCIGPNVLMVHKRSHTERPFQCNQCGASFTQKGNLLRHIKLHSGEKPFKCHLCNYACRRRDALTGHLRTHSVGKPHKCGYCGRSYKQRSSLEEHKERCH

Chain of Ikaros zinc fingers 2-4 (F2-F4) (Q03267 144-223): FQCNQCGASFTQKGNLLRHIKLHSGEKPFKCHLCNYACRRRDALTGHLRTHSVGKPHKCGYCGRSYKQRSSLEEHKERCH
Chain of Ikaros zinc fingers 1-3 (F1-F3) (Q03267 117-194): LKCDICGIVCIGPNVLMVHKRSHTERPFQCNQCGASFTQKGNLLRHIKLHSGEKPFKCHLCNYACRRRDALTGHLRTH

B1: Snx29_Left (dsDNA)
DNA 1: TCAGATACTGGGAACACTGTCAC
DNA 2: GTGACAGTGTTCCCAGTATCTGA
Take B1: the binding result in data set [1], in data set [2] and in data set [3] was “binds” in each case.

B2: Snx29_Right (dsDNA)
DNA 1: TCAGACACTGAGAATACTGTCAC
DNA 2: GTGACAGTATTCTCAGTGTCTGA
As for B2, the binding result in data set [1], in data set [2] and in data set [3] was “no binding” in each case.

B3: Snx25_A (dsDNA)
DNA 1: TCAGAAAAAGGGAAAAGGGTCAC
DNA 2: GTGACCCTTTTCCCTTTTTCTGA
Take B3: the binding result in data set [1] was “no binding”; in data set [2], “binds”; in data set [3], “binds”.
